Results from patent publication US20200085917A1.

Key:
Assay in all cases: GST pull-down, LC-MS/MS
[1] = target: Lyrm4_IPI:IPI00169804.1 (mouse) (UniProt Q8K215)
[2] = target: Mrpl43_IPI:IPI00278781.1 (mouse) (UniProt Q99N89)
[3] = target: Hspa5_IPI:IPI00319992.1 (mouse) (UniProt P20029)
[4] = target: Hint2_IPI:IPI00133034.3 (mouse) (UniProt Q9D0S9)
[5] = target: Hagh_IPI:IPI00115866.2 (mouse) (UniProt Q99KB8)
[6] = target: Letm1_IPI:IPI00131177.1 (mouse) (UniProt Q9Z2I0)
[7] = target: Iscu_IPI:IPI00110578.1 (mouse) (UniProt Q9D7P6)
[8] = target: Ppt1_IPI:IPI00331318.2 (mouse) (UniProt O88531)
[9] = target: Ndufa11_IPI:IPI00318645.6 (mouse) (UniProt Q9D8B4)
[10] = target: Mrps33_IPI:IPI00135214.1 (mouse) (UniProt Q9D2R8)
[11] = target: Tim50 (endogenous, mouse) (mouse) (UniProt Q9D880)
[12] = target: Cisd3_IPI:IPI00345740.4 (mouse) (UniProt B1AR13)
[13] = target: 5730469M10Rik_IPI:IPI00187272.3 (mouse)
[14] = target: Slc25a19_IPI:IPI00118826.1 (mouse) (UniProt Q9DAM5)
[15] = target: Atp1a1_IPI:IPI00311682.5 (mouse) (UniProt Q8VDN2)
[16] = target: Chchd3_IPI:IPI00133562.1 (mouse) (UniProt Q9CRB9)
[17] = target: Rab15_IPI:IPI00170032.1 (mouse) (UniProt Q8K386)
[18] = target: Dnaja3_IPI:IPI00120414.1 (mouse) (UniProt Q99M87)
[19] = target: Tim17a (endogenous, mouse forebrain mitochondria) (mouse) (UniProt Q9Z0V8)
[20] = target: Echs1_IPI:IPI00454049.4 (mouse) (UniProt Q8BH95)
[21] = target: Dsg1c_IPI:IPI00331259.3 (mouse) (UniProt Q7TSF0)
[22] = target: Brp44_IPI:IPI00131896.1 (mouse) (UniProt Q9D023)
[23] = target: Hsd17b10_IPI:IPI00320847.1 (mouse) (UniProt O08756)
[24] = target: Cisd1_IPI:IPI00128346.1 (mouse) (UniProt Q91WS0)
[25] = target: Actg1_IPI:IPI00136929.1 (mouse) (UniProt P63260)
[26] = target: Asrgl1_IPI:IPI00223875.1 (mouse) (UniProt Q8C0M9)
[27] = target: Ociad2_IPI:IPI00112139.1 (mouse) (UniProt Q9D8W7)
[28] = target: Gm561_IPI:IPI00344567.1 (mouse)
[29] = target: Fahd1_IPI:IPI00468850.1 (mouse) (UniProt Q8R0F8)
[30] = target: Rdh13_IPI:IPI00229040.1 (mouse) (UniProt Q8CEE7)
[31] = target: Asah1_IPI:IPI00125266.1 (mouse) (UniProt Q9WV54)
[32] = target: Cplx1_IPI:IPI00132278.1 (mouse) (UniProt P63040)
[33] = target: Agk_IPI:IPI00113606.2 (mouse) (UniProt Q9ESW4)

GST-Httex1-97Q, sequence (P08515 1-218, tags or fused parts left off): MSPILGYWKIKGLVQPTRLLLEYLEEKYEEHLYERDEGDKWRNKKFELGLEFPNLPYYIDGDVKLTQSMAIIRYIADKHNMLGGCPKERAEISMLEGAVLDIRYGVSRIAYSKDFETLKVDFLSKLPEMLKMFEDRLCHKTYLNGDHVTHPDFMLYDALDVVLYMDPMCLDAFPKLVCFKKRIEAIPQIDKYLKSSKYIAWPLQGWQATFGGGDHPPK
Iscu_IPI:IPI00110578.1 (mouse), sequence (Q9D7P6 36-168 limits assumed): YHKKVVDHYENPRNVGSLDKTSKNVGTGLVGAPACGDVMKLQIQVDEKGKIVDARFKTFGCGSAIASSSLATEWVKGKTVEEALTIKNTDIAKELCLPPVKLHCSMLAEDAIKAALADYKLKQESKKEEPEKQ
Brp44_IPI:IPI00131896.1 (mouse), sequence (Q9D023 whole entry): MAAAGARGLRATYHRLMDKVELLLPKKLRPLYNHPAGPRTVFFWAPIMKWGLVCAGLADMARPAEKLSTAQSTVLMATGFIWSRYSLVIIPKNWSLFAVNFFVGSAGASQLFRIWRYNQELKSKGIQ
Dnaja3_IPI:IPI00120414.1 (mouse), sequence (Q99M87 whole entry): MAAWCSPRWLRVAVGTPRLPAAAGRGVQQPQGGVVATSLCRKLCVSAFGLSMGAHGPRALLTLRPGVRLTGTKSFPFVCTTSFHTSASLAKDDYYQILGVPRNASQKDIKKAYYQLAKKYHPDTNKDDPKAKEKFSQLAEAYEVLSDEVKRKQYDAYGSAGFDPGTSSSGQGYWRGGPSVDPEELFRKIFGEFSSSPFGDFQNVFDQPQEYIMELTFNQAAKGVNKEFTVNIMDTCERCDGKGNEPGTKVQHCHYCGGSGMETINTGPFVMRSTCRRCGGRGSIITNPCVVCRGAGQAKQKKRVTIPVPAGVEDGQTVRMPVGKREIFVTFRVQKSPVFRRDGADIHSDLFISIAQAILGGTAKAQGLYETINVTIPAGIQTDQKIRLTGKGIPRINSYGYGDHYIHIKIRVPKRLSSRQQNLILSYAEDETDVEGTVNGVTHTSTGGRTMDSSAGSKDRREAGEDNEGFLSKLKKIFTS
Chchd3_IPI:IPI00133562.1 (mouse), sequence (Q9CRB9 2-227 limits assumed): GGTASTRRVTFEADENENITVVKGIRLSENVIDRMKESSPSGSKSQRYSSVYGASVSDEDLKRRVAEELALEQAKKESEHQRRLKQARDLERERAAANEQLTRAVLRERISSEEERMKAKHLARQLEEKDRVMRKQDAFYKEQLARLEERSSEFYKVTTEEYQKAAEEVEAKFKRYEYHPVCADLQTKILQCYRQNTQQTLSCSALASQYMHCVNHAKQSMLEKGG
Asah1_IPI:IPI00125266.1 (mouse), sequence (Q9WV54 19-394 limits assumed): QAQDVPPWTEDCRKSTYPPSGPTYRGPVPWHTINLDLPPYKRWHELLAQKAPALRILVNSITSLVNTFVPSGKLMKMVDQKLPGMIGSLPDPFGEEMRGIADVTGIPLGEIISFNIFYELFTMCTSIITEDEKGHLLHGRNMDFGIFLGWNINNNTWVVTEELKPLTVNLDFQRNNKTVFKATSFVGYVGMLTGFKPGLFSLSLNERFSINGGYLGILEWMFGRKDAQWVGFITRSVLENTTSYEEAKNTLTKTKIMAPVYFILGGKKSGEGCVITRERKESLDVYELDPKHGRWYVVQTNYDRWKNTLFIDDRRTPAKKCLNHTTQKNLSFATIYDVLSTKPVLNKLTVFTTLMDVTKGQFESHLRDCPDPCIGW
Letm1_IPI:IPI00131177.1 (mouse), sequence (Q9Z2I0 115-738 limits assumed): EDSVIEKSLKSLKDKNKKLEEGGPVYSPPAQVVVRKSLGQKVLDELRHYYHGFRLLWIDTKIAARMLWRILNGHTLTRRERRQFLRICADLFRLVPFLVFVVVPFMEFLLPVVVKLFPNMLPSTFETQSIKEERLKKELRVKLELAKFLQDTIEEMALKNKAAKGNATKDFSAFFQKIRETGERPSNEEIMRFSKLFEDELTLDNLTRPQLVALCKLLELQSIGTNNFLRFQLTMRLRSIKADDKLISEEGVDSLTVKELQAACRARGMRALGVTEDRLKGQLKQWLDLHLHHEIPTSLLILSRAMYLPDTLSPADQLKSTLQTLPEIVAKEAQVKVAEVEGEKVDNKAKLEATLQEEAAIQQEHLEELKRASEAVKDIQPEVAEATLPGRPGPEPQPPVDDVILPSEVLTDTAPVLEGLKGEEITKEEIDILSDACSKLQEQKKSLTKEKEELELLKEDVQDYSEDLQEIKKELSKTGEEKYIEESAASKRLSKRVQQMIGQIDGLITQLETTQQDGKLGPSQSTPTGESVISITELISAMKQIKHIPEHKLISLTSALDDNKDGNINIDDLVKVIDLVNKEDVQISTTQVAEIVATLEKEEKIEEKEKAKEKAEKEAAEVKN
Hspa5_IPI:IPI00319992.1 (mouse), sequence (P20029 20-655 limits assumed): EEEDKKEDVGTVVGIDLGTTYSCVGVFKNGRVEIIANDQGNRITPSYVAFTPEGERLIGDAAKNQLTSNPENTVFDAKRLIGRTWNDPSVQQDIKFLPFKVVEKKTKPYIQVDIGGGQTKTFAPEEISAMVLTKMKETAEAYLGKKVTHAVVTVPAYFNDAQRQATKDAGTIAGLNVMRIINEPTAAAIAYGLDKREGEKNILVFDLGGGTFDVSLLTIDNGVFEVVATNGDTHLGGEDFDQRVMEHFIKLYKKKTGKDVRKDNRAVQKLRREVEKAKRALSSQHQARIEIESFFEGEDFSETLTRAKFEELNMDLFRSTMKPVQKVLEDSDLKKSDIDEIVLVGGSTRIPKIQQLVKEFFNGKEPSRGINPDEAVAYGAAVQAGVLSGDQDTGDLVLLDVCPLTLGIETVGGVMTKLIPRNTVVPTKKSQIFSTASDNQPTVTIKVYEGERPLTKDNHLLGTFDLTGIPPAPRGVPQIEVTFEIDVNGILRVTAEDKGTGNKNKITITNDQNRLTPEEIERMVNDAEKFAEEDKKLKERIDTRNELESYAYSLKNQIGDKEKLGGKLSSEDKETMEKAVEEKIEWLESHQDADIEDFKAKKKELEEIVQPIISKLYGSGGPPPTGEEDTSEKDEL
Echs1_IPI:IPI00454049.4 (mouse), sequence (Q8BH95 28-290 limits assumed): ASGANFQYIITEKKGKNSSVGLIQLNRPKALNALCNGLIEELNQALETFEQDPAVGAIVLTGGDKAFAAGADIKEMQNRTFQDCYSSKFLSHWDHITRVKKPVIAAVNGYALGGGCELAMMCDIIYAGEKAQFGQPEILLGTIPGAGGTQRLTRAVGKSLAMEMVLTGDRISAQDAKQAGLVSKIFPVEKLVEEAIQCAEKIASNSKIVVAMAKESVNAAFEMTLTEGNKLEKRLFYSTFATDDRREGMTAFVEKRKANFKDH
Tim17a (endogenous, mouse forebrain mitochondria) (mouse), sequence (Q9Z0V8 whole entry): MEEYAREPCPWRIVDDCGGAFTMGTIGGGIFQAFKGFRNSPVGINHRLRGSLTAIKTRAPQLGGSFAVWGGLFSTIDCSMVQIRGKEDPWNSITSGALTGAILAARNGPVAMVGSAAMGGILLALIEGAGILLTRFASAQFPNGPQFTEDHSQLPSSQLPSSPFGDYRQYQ
Ndufa11_IPI:IPI00318645.6 (mouse), sequence (Q9D8B4 whole entry): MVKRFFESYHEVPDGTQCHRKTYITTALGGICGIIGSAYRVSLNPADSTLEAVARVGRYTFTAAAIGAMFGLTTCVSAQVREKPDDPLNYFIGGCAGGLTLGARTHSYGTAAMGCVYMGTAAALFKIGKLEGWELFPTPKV
Lyrm4_IPI:IPI00169804.1 (mouse), sequence (Q8K215 whole entry): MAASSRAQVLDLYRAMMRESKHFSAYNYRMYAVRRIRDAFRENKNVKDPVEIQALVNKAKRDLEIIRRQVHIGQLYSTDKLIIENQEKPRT
Asrgl1_IPI:IPI00223875.1 (mouse), sequence (Q8C0M9 whole entry): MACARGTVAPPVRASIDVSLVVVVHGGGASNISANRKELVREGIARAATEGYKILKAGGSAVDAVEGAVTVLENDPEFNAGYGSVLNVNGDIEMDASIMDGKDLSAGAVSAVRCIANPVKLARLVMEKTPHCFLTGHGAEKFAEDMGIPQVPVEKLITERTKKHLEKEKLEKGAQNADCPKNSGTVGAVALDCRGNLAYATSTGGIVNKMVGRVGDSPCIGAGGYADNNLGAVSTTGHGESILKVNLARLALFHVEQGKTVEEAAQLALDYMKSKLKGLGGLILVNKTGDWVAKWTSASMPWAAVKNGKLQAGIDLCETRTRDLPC
Mrpl43_IPI:IPI00278781.1 (mouse), sequence (Q99N89 whole entry): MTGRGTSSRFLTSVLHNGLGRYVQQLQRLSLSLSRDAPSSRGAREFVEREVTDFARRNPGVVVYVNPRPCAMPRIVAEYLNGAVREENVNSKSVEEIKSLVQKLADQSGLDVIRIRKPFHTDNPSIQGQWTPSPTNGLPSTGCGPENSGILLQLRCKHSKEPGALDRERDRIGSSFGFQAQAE
Dsg1c_IPI:IPI00331259.3 (mouse), sequence (Q7TSF0 50-911 limits assumed): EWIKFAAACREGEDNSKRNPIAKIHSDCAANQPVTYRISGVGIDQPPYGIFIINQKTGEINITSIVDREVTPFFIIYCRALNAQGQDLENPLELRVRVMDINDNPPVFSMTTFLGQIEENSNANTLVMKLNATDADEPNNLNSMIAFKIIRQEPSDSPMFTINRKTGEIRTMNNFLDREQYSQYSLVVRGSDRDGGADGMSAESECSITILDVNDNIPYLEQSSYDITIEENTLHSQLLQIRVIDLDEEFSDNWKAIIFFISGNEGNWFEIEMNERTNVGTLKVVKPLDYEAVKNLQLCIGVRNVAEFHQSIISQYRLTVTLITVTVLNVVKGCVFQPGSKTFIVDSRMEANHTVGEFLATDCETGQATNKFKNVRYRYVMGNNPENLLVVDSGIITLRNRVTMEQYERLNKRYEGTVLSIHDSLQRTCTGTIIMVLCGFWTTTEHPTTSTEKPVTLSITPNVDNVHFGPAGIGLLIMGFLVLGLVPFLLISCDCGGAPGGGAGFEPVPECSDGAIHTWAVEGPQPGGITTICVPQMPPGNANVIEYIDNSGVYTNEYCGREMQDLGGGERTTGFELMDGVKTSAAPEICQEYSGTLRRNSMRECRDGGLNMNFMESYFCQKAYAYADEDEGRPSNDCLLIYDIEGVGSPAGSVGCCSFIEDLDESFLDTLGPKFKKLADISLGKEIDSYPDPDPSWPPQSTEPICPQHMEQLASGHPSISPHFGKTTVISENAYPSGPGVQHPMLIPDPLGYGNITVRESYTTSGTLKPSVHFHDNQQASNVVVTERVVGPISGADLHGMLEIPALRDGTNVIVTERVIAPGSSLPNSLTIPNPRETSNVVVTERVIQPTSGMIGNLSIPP

GST-Httex1-97Q (from UniProt P08515 1-218; P42858 1-88)
No. of total peptides [1]: 1 peptides | No. of unique peptides [1]: 1 peptides | No. of total peptides [2]: 1 peptides | No. of unique peptides [2]: 1 peptides | No. of total peptides [3]: 1 peptides | No. of unique peptides [3]: 1 peptides | No. of total peptides [4]: 1 peptides | No. of unique peptides [4]: 1 peptides | No. of total peptides [5]: 2 peptides | No. of unique peptides [5]: 2 peptides | No. of total peptides [6]: 4 peptides | No. of unique peptides [6]: 4 peptides | No. of total peptides [7]: 2 peptides | No. of unique peptides [7]: 2 peptides | No. of total peptides [8]: 1 peptides | No. of unique peptides [8]: 1 peptides | No. of total peptides [9]: 1 peptides | No. of unique peptides [9]: 1 peptides | No. of total peptides [10]: 1 peptides | No. of unique peptides [10]: 1 peptides | No. of total peptides [11]: 3 peptides | No. of unique peptides [11]: 3 peptides | No. of total peptides [12]: 1 peptides | No. of unique peptides [12]: 1 peptides | No. of total peptides [13]: 1 peptides | No. of unique peptides [13]: 1 peptides | No. of total peptides [14]: 1 peptides | No. of unique peptides [14]: 1 peptides | No. of total peptides [15]: 1 peptides | No. of unique peptides [15]: 1 peptides | No. of total peptides [16]: 2 peptides | No. of unique peptides [16]: 2 peptides | No. of total peptides [17]: 1 peptides | No. of unique peptides [17]: 1 peptides | No. of total peptides [18]: 1 peptides | No. of unique peptides [18]: 1 peptides | No. of total peptides [19]: 1 peptides | No. of unique peptides [19]: 1 peptides | No. of total peptides [20]: 5 peptides | No. of unique peptides [20]: 5 peptides | No. of total peptides [21]: 1 peptides | No. of unique peptides [21]: 1 peptides | No. of total peptides [22]: 5 peptides | No. of unique peptides [22]: 5 peptides | No. of total peptides [23]: 1 peptides | No. of unique peptides [23]: 1 peptides | No. of total peptides [24]: 3 peptides | No. of unique peptides [24]: 2 peptides | No. of total peptides [25]: 1 peptides | No. of unique peptides [25]: 1 peptides | No. of total peptides [26]: 1 peptides | No. of unique peptides [26]: 1 peptides | No. of total peptides [27]: 3 peptides | No. of unique peptides [27]: 3 peptides | No. of total peptides [28]: 2 peptides | No. of unique peptides [28]: 2 peptides | No. of total peptides [29]: 1 peptides | No. of unique peptides [29]: 1 peptides | No. of total peptides [30]: 1 peptides | No. of unique peptides [30]: 1 peptides | No. of total peptides [31]: 3 peptides | No. of unique peptides [31]: 3 peptides | No. of total peptides [32]: 6 peptides | No. of unique peptides [32]: 4 peptides | No. of total peptides [33]: 1 peptides | No. of unique peptides [33]: 1 peptides
